{"source": "the DeepSol protein solubility set"}
{"assay": "soluble on expression in E. coli; label from the status in PepcDB or PDB records"}
{"sequence": "MSLSRYEKIISARWIITVETDGEVLENHAIAIRDGKIAAIIPAADAAGLEADERLELPDHVLMPGLINLHGHSAMSLLRGLADDKALMDWLTNYIWPTEGKHVHDDFVFDGSLLAMGEMIRGGTTTINDMYFYNAAVARAGLASGMRTFVGCSILEFPTNYASNADDYIAKGMAERSQFLGEDLLTFTLAPHAPYTVSDDTFRKVVTLAEQEDMLIHCHIHETADEVNNSVKEHGQRPLARLQRLGLLSPRLVAAHMVHLNDAEVELAARHGLSTAHNPASNMKLASGISPVSKLMDAGVAVGIGTDGAASNNKLDMLAETRLAALLAKVGTLDPTSVPAAAAIRMATLNGARALGIADKVGSVKVGKQADLIALDLAQLETAPAFDPISHVVYAAGREQVSHVWVKGRALMRERKLTTLDESDLKARAGDWRNRILAKEGHHHHHH", "soluble on expression in E. coli": "soluble"}
{"sequence": "MHHHHHHSSGLVPRGSGMKETAAAKFERQHMDSPDLGTDDDDKAMADIGSEFDMANIAVQRIKREFKEVLKSEETSKNQIKVDLVDENFTELRGEIAGPPDTPYEGGRYQLEIKIPETYPFNPPKVRFITKIWHPNISSVTGAICLDILKDQWAAAMTLRTVLLSLQALLAAAEPDDPQDAVVANQYKQNPEMFKQTARLWAHVYAGAPVSSPEYTKKIENLCAAGFDRNAVIVALSSKSWDVETATELLLSN", "soluble on expression in E. coli": "soluble"}
{"sequence": "MASQGFSVYVGNVPYQGTEEEIGNYFAAVGHVNNVRIVYDRETGRPRGFAFVEFSEEAGAQRAVEQLNGVAFNGRNLRVNYANK", "soluble on expression in E. coli": "soluble"}
{"sequence": "MGSDKIHHHHHHMDFRLRQMEIFRSVMLTGSINGAAKLLFISQPAVSRIIAHTEQTLGLKLFNRAKGKLIPTPEGVALFRQVDEFYEHALQVNNFARDLAQGATGTLNLSSSPCLSYTVMPRAIAQFIARYPKIRVVYHTSQLNCMATEVLSNKVDVAVAVMPIQHPNVKVEVFTTGKMACVLPKDHPLGSQTVLSLADVSAYPLIVHHPSITFGKLVSTAFRDAGLEMRSRVNVFQTDVACSLVRAGAGIAIVDEYTACAGAWHDLMQRPLAEPITLTPCIVRSAFDNQATHADKFIEILRGVAHAR", "soluble on expression in E. coli": "not soluble"}
{"sequence": "MSLKDEYTTSFGIRTIEVIPNKGFFLNGKRTSFKGVCNHHDLGPLGGAVNDAAIRRQIRILKDMGCNAIRTSHNMPAPELIRACDEMGMMVMAESFDEWKAMKVKNGYRHVFDEWAVKDLTNLLRHYRNNPSVVMWCIGNEVPEQWDGNKGPKMSYFLQELCHREDPTRPVTQGMDAPDAVVNNNMAAVMDIAGFNYRPHKYQENYKKLPQQIVLGSETASTVSSRGVYKFPVTRQWMKKYDDHQSSSYDVESCSWSNLPEDDFIQHEDLPYCIGEFVWTGFDYLGEPTPYYTDWPSHSSLFGIIDLAGLPKDRYYLYRSHWNKEQETLHILPHWNWEGREGEITPVFVYTNYPSAELFINGKSQGKRTKDLSVTIDNSADSVSIMNLKRQSRYRLMWMDTKYEPGTVKVVAYDADGKAVAEKELHTAGKPDHIELVADRNVIKADGKDLSFVTVRVVDRDGNLCPDASHEISFKVKGEGSYRAGANGNAASLESFQHPKMKVFSGMMTAIVSSTEQPGKITLEATGKGLKKGALIIESCQEAKEGHHHHHH", "soluble on expression in E. coli": "not soluble"}
{"sequence": "MCLIVFAWQPGHALPLLVAANRDEFYARPSLPLAAWEDAEGVFAGRDLEAGGTWLGLGPAGRFAALTNVRDPSQALGKRSRGELVADFLRGGGNPADYLAQVAGRAADYSGFNLLIGDRHQLWHYNPRVGPPRLLPAGIYGLSNAALDTPWPKLLKARAALAERLAEPHPQALLELLADAAPAADGQLPDTGVGLATERLLSSVFIASPSYGTRASSVVRVHADGTREMIERSFGPSGARLGEVSLVLPPGLEHHHHHH", "soluble on expression in E. coli": "not soluble"}
{"sequence": "DLTIDNGPEKGDLLVLGWGSTYGAIKKAVEQAREGGLDVAHAHLRYINPFPKNLGAMLGNFKKVLIPENNCGQLLSLIRDKFLIEPVGFSKVQGLPFNEMEIEEKITDILKEL", "soluble on expression in E. coli": "not soluble"}
{"sequence": "MRKEKIRLEYMLKAGSGNIVWSIISTPSGLETWFADKVIFKDKVFTFYWGKTETRQAEVTNFRVNSFIRFRWLDDEDPKAYFELKMVYNELTSDYMLEVIDWAAPDEVEDTKELWDSEIEKLKRVSGLLEHHHHHH", "soluble on expression in E. coli": "soluble"}
{"sequence": "MSLIKITIGICEYPSVLKSAVYGFEEMFLLANRICKEQNIEVVFEPILIPHTGLTAERLTVVLLPPASLDNYYLAPDDALIRWLKAHYSQGTVLSSACAGVFILAATNLIDSREVTTHWALAETFSQAFPSIALDSNKILINHGDIVTAGGMMSWLDLGFELIAKYASPGVVRQLGKTLVIDTAQRAQSYYQQFHPSFSHGDYAIVSIQQIMHQRYAEPLSIKQLAKQANLTERTMQRRFLKATGYNPNQYLQRLRIQSACHLLESTQHSFDSISHQVGYEDTSACRKVFINVIGLTPREFRKRFAEGHHHHHH", "soluble on expression in E. coli": "soluble"}
{"sequence": "MGSDKIHHHHHHMILFEWGTYNALSTLKQAALLGTRITEIPPAVLSRRLPSGYYESYKKLGGEYFTSILAHGPYYSLSSEKGLKGHLSAIEKATLCGAEIYNYHLGKRVGDDLNYHLEVLKKFSEVNNEMIYSPEPATNIGEFGTLDELEELIKAAKEEDIKIIPSLQLENIFLNELGVYEKDDLDEAAEKADVDWWLKIFRRMDKISDYIMHFRFSQVIGLKYGKRFYKKRVPLGKGYPPVEPLTEALATYLVDNATRGGFKKVLFVYTGLPEVKYRDLIDLYAMIMKKSIDKLMSRESQVEYGDFYKVMSSEEEE", "soluble on expression in E. coli": "not soluble"}
{"sequence": "MKKCNIMIVGVGGQGTLLASRIIGNVALKQNYDVKVSEVHGMSQRGGSVVTYVKIGDKVYSPIIEKGEADIIMAFEMLEALRWAEYLKEDGKLLVNEQKINPMPVIIGKEKYPENIMQMLKENYKNVISLDALKIARECKNIKAVNTVLIGLLAKVLEIDKEVWIESIKEVVPSKAVDVNLKAFEEGYSRG", "soluble on expression in E. coli": "soluble"}
{"sequence": "MPSCEINLIFNDSEEPVTLRDTGIIMLVPVILRSVQSEFPDFENQDNVKVTSPLSIPFNKKAGVFLFEYIQKYVPPNDDTIHELTVVENYKEAGQKTLDELKEIIELANFFECTDFMECLGFVIGKKLEDKSVEEIAAYMGVECNAPGHFFDEADGWVHPPADAFQNVQ", "soluble on expression in E. coli": "not soluble"}
{"sequence": "MGSDKIHHHHHHMQRQTELKNWLQTVYPERDFDLSFAAADADFRRYFRAAFSDGGSVVCMDAPPDKMSVAPYLKVQKLFDMVNVPQVLHADTDLGFVVLNDLGNTTFLTAMLQEQGEAAHKALLLEAIGELVGLQKASREGVLPEYDRETMLREINLFPEWFVAKELGRELTFKQRQLWQQTADTLLPPLLAQPKVYVHRDFIVRNLMLTRGRPGVLDFQDALYGPISYDLVSLLRDAFIEWEEEFVLDLVIRYWEKARAAGLPVPAEFDEFYRRFEWMGVQRHLKVAGIFARLYYRDGKDKYRPEIPRFLNYLRRVSRRYAELAPLYALLVELVGDEELETGFTF", "soluble on expression in E. coli": "not soluble"}
{"sequence": "MAHHHHHHMVLTLDCSQAVQNTIRELQDTRAFTDDDGAETIATTWFSDVGLCITGYTRDLVAAINSQGTPSVVVVIQNLHTFADRQRQKVLKIHQRYFNSVLSDTTKVVPVVSQDDYTKILRHMQVSKIRTLKWRDQHPYMAVEEKAYNPETQELTITGHLRGMPLSATQLVHLTNHGTFQVCKIEEVRKGDERVLIETSEAAQRESLQQVQANSTLEDDGFPTDADVLYHQEIAGTHKIRVPAGVSSDQAAWYDTEENIVKDSAPKHQHITMDDEDAFAGDAMSYRTTQTDVDFLKAEDVVRLERMTDEERILEMEKLKELSEEETWNPDMVDTPVNIPARQRFAKYRGMRSFHTGRWDPAENLPPQYAYIYKLQGYSRIRESAIDACEGGMAEVGMCIAITLVNVPQSVWNACERCLLIASGQLQHEQKWSVLHFQVQRASELDEPIKSKTPMLAHIGFRKFYVSPLFSDISSGDRSKFARFFHEGDRFRMATFFGPISYNPCPLLLFQVPSLEEQAEGNPLRLACFGGSLPPNPETLLLKRAVLSGRVAVIHKKQVVVKYMFFNDEDIKWFQPVDLYTKFGRRGKITKPVGTHGLFKAVLNDQIMQHDVVCMDLFKRVFPKWTTVAFSMSDVPAGHTENEEER", "soluble on expression in E. coli": "not soluble"}
{"sequence": "MSLPSAQAPSLLNPTDDFAALGNIAWLWMNSPMHRDWPVHLLARNTLAPIQLGQYILLRCNDVPVAYCSWALMDADTELSYVMAPSSLGGNAWNCGDRLWIIDWIAPFSRDDNRALRRALAERHPDSVGRSLRVRRGGDTARVKEYRGRALDAAAARAQLDRYHAELIAGLRASNGGYAPREGHHHHHH", "soluble on expression in E. coli": "not soluble"}
